Consider one molecule from publication PMC10885103 (2023).

Bridges are numbered along the chain shown (N, C = ends). Where no end group is shown, it is not given here. [ ]: non-standard residue; d: D form.

This assay concerns the target T1, TNFR-1 CRD2 72-116 (Homo sapiens, UniProt P19438).
T1 chain: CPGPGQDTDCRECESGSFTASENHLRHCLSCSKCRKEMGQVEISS
The assay is described as follows: grating-coupled interferometry.

One may read the Kd as the equilibrium constant for the complex coming apart. Molecule [dC](cysteinyl)[dF][dH][dC][dI][dW][dL]G[dD][dE][dC] (disulfide 4-11; also: CRD2 with C-terminal biotin linker) [d-TCPB] had a Kd of 1000 nM.
